This series deals with the molecule itself. As to the kind of experiment: cross-linking; lysates of transfected COS7 cells in 20 mM HEPES pH 7.2, 1% Triton X-100, incubated with DSS (0.25 mM in the methods; increasing concentrations in the results) or DMSO for 30 min at 4°C; anti-Myc blot.

We go through 1 protein from paper PMC10917059, “RhoU forms homo-oligomers to regulate cellular responses” (Journal of Cell Science, 2024).

B1: Myc–RhoU (natural protein)
chain: not shown
notes: vector a gift from Pontus Aspenström; also called pRK5-myc-RhoU; full-length RhoU; source: COS7, transfected, in lysate; not shown: Myc, N-terminal, kept
Regarding B1, the “stoichiometry N” value came out at 2.
